Measured values: the RNAGym collection of RNA variant scans (doi:10.1073/pnas.2313332121)

B1: TPR t1 (parent)
chain: GACCAAUCUGCCCUCAGAGCUCGAGAACAUCUUCGGAUGCAGAGGAGGCAGGCUUCGGUGGCGCGAUAGCGCCAACGUCCUCAACCUCCAAUGCAUCCCACCACAUGAUGAUGCCUGAAGAGCCUUGGUUUUUUG

Variants of: B1
Assay: polymerase ribozyme fitness, log enrichment relative to wild type (log ratio); higher = more active; in vitro selection for triplet polymerase activity
Summary of the method: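 Mutant libraries for each subunit of a heterodimeric triplet polymerase ribozyme were made by PCR and then transcribed. Each library underwent one round of in vitro selection in triplicate: annealing with a biotinylated primer, the partner subunit and triplets, frozen incubation at −7 °C, gel excision of extended constructs, streptavidin-bead capture and RT-PCR. Input and output libraries were Illumina-sequenced, and only genotypes with ≥10 input reads and ≥1 read per output were kept. Fitness is the logarithm, base 2, of genotype enrichment over wild-type enrichment, computed from inverse-variance-weighted replicate averages.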

| Variant | polymerase ribozyme fitness (log ratio) |
| --- | --- |
| C49U C89U | 0.0169 |
| C49A A118G | -0.216 |
| C49U G63A U67C C85U G93U G110C C124A | -8.14 |
| C49G C98G | -4.99 |
| G48U C56G C101U C114G | -4.75 |
| C49A C70U C80A U116C | -7.47 |
| C49U C62U C114G G117C U125C U129C | -7.74 |
| G48A C85A | -0.739 |
| C49U C98U | -2.16 |
| C49G C62G | -3.46 |
| G47U G135A | -2.09 |
| C49U A50U A95G U96A A111G | -7.1 |
| C49G C72U | -0.921 |
| G48U A111C | -0.214 |
| C49G U55C C98U | -2.01 |
| G48A G93A U96C C99U | -4.9 |
| G48U U78C | -1.27 |
| C49U C62G G71A | -1.5 |
| G48A U54G G110C | -4.76 |
| G48C G69U U130C | -0.222 |
| G48U G58A G122A | -1.21 |

| Variant | polymerase ribozyme fitness (log ratio) |
| --- | --- |
| A50G G93C U109A G117C | -6.26 |
| G48C A83C A90C G110A | -3.46 |
| C49A C70U C82A C104U A105U C123G G135U | -5.46 |
| C49U G71C G117U G120A C124A | -2.34 |
| G48C C86U C115A | -1.07 |
| A50G C80G A83G G120C | -6.33 |
| G48A A83U C102A | -2.24 |
| G48A U112A U125G G127C | -1.12 |
| G48U C76G G110A G127A | -2.63 |
| C49G C82G A118U | -0.627 |
| G48A C64A | -6.92 |
| G48A C64U | 0.0683 |
| C49U C62U G77A U78G C80G A90C G107U C115G G120C | -7.16 |
| G48U A50U U78C A90U C123A | -2.26 |
| A50C C72U G77U C99A U116A G120C C123U | -8.09 |
| C49U G61C G71A A95G G113U | -7.48 |
| A50G C73A U106G | -1.39 |
| G48U C72G G122A | -2.3 |
| G48A C88U U96A | -1.74 |
| G48C A84G C85G C115A G127U | -4.98 |
| C49A C56U G120U | 0.2 |

| Variant | polymerase ribozyme fitness (log ratio) |
| --- | --- |
| G48A C101U | -2.29 |
| G48C G71C C123G | -0.00854 |
| C49U G52A C73G A121U | -1.14 |
| C49A C88A G113U A119U G128U | -6.41 |
| C49U G60A A83G U133A | -0.755 |
| C49U G71A | -1.46 |
| C49U G71C | -2.01 |
| C49U G71U | -0.77 |
| G48U G60U G61A A83G U129G | -3.05 |
| C49A G69U | 0.034 |
| C49G U78G U112A | -0.0739 |
| G48U U59A G60U G122A C123A | -1.51 |
| G48C C53A C124U G128C | -3.02 |
| C49G A90C | -3.22 |
| C49A U96G | -0.658 |
| C49G C99U G127U | -4.66 |
| G47U U131G | -1.85 |
| G48C U67C G71A A95G U106A | -8.09 |
| C49U C73A C114U | -2.58 |
| C49U U96C C124A | 1.03 |
| G48A C64U A111G | -0.284 |

| Variant | polymerase ribozyme fitness (log ratio) |
| --- | --- |
| G48C C49A | -2.13 |
| G48C C49G | -0.655 |
| C49G G69U G117A | -1.13 |
| G48U U59C C86G | -2.19 |
| G48C G51U C53U | -4.86 |
| C49A C115G | -1.85 |
| G48A C49U G61U U78A G122A U126A | -3.77 |
| C49U G51U G71A C86U | -7.37 |
| A50G G57U C79A C115A | -1.84 |
| G48A C70A | -2.36 |
| C49G G60C | -1.97 |
| C49U C53U C72G C114U | -3.44 |
| C49G A83G C88A C102U G120C | -5.33 |
| G48U C70U C114A | -2.21 |
| C49U G61U C70G U81G C115G C123U U130A | -5.96 |
| C49A C56A C64U U130C | -0.336 |
| A50G A66G C73U C86A C115G | -4.26 |
| G47U U126G | -3.77 |
| G48U G57A | -1.01 |
| C49A U81C U129G | -3.78 |
| C49U A50U G51A | -2.62 |
